Measured values: patent publication US20100151524A1 (DARWIN DISCOVERY, published 2010)

T1: FLAG epitope-tagged Beer (human Beer, secretion signal removed, C-terminal FLAG tag, from … (human, UniProt Q9BQB4 24-213))
T1 construct: also called FLAG-Beer; H. Beer
T1 sequence: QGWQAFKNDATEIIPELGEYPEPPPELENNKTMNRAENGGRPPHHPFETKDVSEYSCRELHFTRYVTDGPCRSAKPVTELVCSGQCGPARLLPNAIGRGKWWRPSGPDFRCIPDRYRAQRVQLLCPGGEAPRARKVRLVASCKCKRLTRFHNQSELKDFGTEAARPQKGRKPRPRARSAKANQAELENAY

T2: sclerostin (coated on the ELISA surface, Example 12) (Homo sapiens (Human), UniProt Q9BQB4 24-213)
T2 construct: also called SOST; Beer
T2 sequence: T1 sequence

B1: BMP receptor II-FC fusion protein (Fc fusion)
chain: SQNQERLCAFKDPYQQDLGIGESRISHENGTILCSKGSTCYGLWEKSKGDINLVKQGCWSHIGDPQECHYEECVVTTTPPSIQNGTYRFCCCSTDLCNVNFTENFPPPDTTPLSPPHSFNRDET
notes: also called BMPR-II; type II receptor; not shown: Fc part and any linker
B2: BMP-4 (ligand, UniProt P12644 293-408, looked up)
chain: SPKHHSQRARKKNKNCRRHSLYVDFSDVGWNDWIVAPPGYQAFYCHGDCPFPLADHLNSTNHAIVQTLVNSVNSSIPKACCVPTELSAISMLYLDEYDKVVLKNYQEMVVEGCGCR
B3: BMP-6 (ligand, UniProt P22004 382-513, looked up)
chain: QQSRNRSTQSQDVARVSSASDYNSSELKTACRKHELYVSFQDLGWQDWIIAPKGYAANYCDGECSFPLNAHMNATNHAIVQTLVHLMNPEYVPKPCCAPTKLNAISVLYFDDNSNVILKKYRNMVVRACGCH
B4: recombinant human BMP-5 protein (R&D systems) (ligand, UniProt P22003 317-454, looked up)
chain: AANKRKNQNRNKSSSHQDSSRMSSVGDYNTSEQKQACKKHELYVSFRDLGWQDWIIAPEGYAAFYCDGECSFPLNAHMNATNHAIVQTLVHLMFPDHVPKPCCAPTKLNAISVLYFDDSSNVILKKYRNMVVRSCGCH
notes: Commercial protein

Key:
[1] = target: B3; test: ELISA-based competition: sclerostin coated, BMP-6 11 nM; competitor sclerostin
[2] = target: B3; test: ELISA-based competition: sclerostin coated (300 ng/well), BMP-6 11 nM, receptor-FC titrated; competitor sclerostin
[3] = target: B3; test: ELISA-based competition: sclerostin coated, BMP-6, DAN titrated; competitor sclerostin
[4] = target: B3; test: ELISA-based competition: sclerostin coated, BMP-6, receptor-FC titrated; competitor sclerostin
Method: (§1) A 10-fold molar excess of the BMP receptor was sufficient to reduce binding of sclerostin to BMP-6 by approximately 50%. This competition was also observed with a BMP receptor II-FC fusion protein (IC₅₀=36 nM) and DAN (IC₅₀=43 nM).

[5] = target: T1, FLAG epitope-tagged Beer (human Beer, …); test: anti-FLAG immunoprecipitation of FLAG-tagged Beer incubated with BMP-4, anti-BMP-4 western blot; Cerberus with BMP-4 as positive control on the left part
Method: The interaction of Beer with proteins from different phylogenetic arms of the TGF-β superfamily were studied using immunoprecipitation methods. Purified TGFβ-1, TGFβ-2, TGFβ-3, BMP-4, BMP-5, BMP-6 and GDNF were obtained from commerical sources (R&D systems; Minneapolis, Minn.). A representative protocol is as follows. Partially purified Beer was dialyzed into HEPES buffered saline (25 mM HEPES 7.5, 150 mM NaCl). Immunoprecipitations were done in 300 ul of IP buffer (150 mM NaCl, 25 mM Tris pH 7.5, 1 mM EDTA, 1.4 mM β-mercaptoethanol, 0.5% triton×100, and 10% glycerol). […] The proteins were resolved by SDS PAGE and Beer associated BMP-5 was detected by western blot using anti-BMP-5 antiserum (Research Diagnostics, Inc) (see FIG. 5).

[6] = target: T2, sclerostin (coated on the ELISA …); test: ELISA, sclerostin-coated surface (300 ng/well), BMP-6 in solution
Method: as §1

[7] = target: T1, FLAG epitope-tagged Beer (human Beer, …); test: Beer ligand binding assay (FLAG-Beer captured on an anti-FLAG plate, BMP-5 titrated, ELISA detection), FIG. 6
Method: FLAG-Beer protein (20 ng) is added to 100 ul PBS/0.2% BSA and adsorbed into each well of 96 well microtiter plate previously coated with anti-FLAG monoclonal antibody (Sigma; St Louis Mo.) and blocked with 10% BSA in PBS. This is conducted at room temperature for 60 minutes. This protein solution is removed and the wells are washed to remove unbound protein. BMP-5 is added to each well in concentrations ranging from […] to 500 nM in PBS/0.2% BSA and incubated for 2 hours at room temperature. The binding solution is removed and the plate washed with three times with 200 ul volumes of PBS/0.2% BSA. BMP-5 levels are then detected using BMP-5 anti-serum via ELISA (F. M. Ausubel et al (1998) Current Protocols in Mol. Biol. Vol 2 11.2.1-11.2.22). Specific binding is calculated by subtracting non-specific binding from total binding and analyzed by the LIGAND program (Munson and Podbard, Anal. Biochem., 107, p 220-239, (1980).

Molecule: BMP receptor IA (FC fusion construct)
- reduction of binding of sclerostin to BMP-6 at a 10-fold molar excess of receptor [1]: 50%
- IC50 [2]: 114 nM

Molecule: DAN (competitor in Example 12)
- IC50 [3]: 43 nM

Molecule: B1
- IC50 [4]: 36 nM

Molecule: B2
- binding result [5]: no binding

Molecule: B3
- Kd [6]: 3.4 nM

Molecule: B4
- Kd [7]: 15 to 30 nM
